B1: library; a variant is named by its letters at N, in order (parent)
chain: GCUGUCACCGGUGCUUGGUACGUUAUAUUCAGCCGGUCUGAUGAGUCUNNNNNNAGACGAAACAGC

The variants in series [1] derive from B1. Kind of series: FACS-Seq fitted mean relative fluorescence mCherry/BFP without ligand (log10 relative fluorescence); HEK293T overexpressing SLC46A1; higher = higher reporter protein expression. Particulars: without (6R,S)-folinic acid; ligand present: no. Summed up: (§1)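 Fluorescence values are fitted normal means of bin counts along the mCherry/BFP axis. HEK293T libraries lentivirally carrying the ribozyme switch in an mCherry reporter, with an EF1α-BFP marker, were enriched, exposed to ligand or not for 48 h, and sorted into 6 bins. Genomic DNA per bin was PCR-amplified, barcoded and run on MiSeq. Means of log10(mCherry/BFP) were scaled to five spiked-in control ribozymes.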

The variants in series [2] derive from B1. Briefly: normalized RNA/DNA level without ligand (relative to sTRSVctl = 100) (log10 (% of sTRSVctl)); HEK293T overexpressing SLC46A1; higher = less ribozyme self-cleavage, higher mRNA level. Particulars: without (6R,S)-folinic acid; ligand present: no. In short, it runs like this:
(§2)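 HEK293T cells were transfected with library plasmids carrying ribozyme switches linked to an mCherry reporter, or an eGFP reporter in some ligand experiments, at 4 µg per well of a 6-well plate, with any ligand added 1 h beforehand. After 72 h, total RNA was extracted with EDTA, reverse-transcribed, amplified, barcoded and sequenced. RNA level was defined as RNA reads over DNA reads, normalized to a spiked-in non-cleaving sequence or to the top-ranked sequences. That value was multiplied by 100 and converted to log10, the top set was 25 sequences, and only sequences with ≥100 DNA reads were retained.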

The variants in series [3] derive from B1. Kind of series: FACS-Seq fitted mean relative fluorescence mCherry/BFP with ligand (log10 relative fluorescence); HEK293T overexpressing SLC46A1; ligand concentration (+) FACS-Seq: 6 mM; higher = higher reporter protein expression. Particulars: with (6R,S)-folinic acid; ligand present: yes. In short, it runs like this: as §1
In series [4] the parent is B1. Kind of series: normalized RNA/DNA level with ligand (relative to sTRSVctl = 100) (log10 (% of sTRSVctl)); HEK293T overexpressing SLC46A1; ligand concentration (+) RNA-Seq: 6 mM; higher = less ribozyme self-cleavage, higher mRNA level. The note with it: with (6R,S)-folinic acid; ligand present: yes. In short, it runs like this:
as §2

± gives the standard deviation of the averaged measurements.

As for GCUACA, the “FACS-Seq fitted mean (log10)” value in series [1] was -0.313 ± 0.09; in series [3], -0.102 ± 0.14. In addition, in series [2], the “normalized RNA/DNA level without ligand (log10)” value came out at 2.017 ± 0.018. The “normalized RNA/DNA level with ligand (log10)” value in series [4] was found to be 2.03 ± 0.05.
UCUCGU: the “FACS-Seq fitted mean (log10)” value was 0.148 ± 0.028 in series [1] and -0.0695 ± 0.1 in series [3]. For the same variant, in series [2], the “normalized RNA/DNA level without ligand (log10)” value is 1.9916 ± 0.0016. In addition, the “normalized RNA/DNA level with ligand (log10)” value in series [4] amounted to 2.012 ± 0.013.
With UCUCGA, the “FACS-Seq fitted mean (log10)” value amounted to 0.597 ± 0.079 in series [1] and 0.413 ± 0.029 in series [3]. The “normalized RNA/DNA level without ligand (log10)” value in series [2] was 2.071 ± 0.012. In addition, the “normalized RNA/DNA level with ligand (log10)” value in series [4] is 2.03 ± 0.021.
In the case of CCGAAG, the “FACS-Seq fitted mean (log10)” value in series [1] is -0.309 ± 0.021; in series [3], -0.882 ± 0.26. Also, in series [2], the “normalized RNA/DNA level without ligand (log10)” value amounted to 1.869 ± 0.0079. Further, the “normalized RNA/DNA level with ligand (log10)” value in series [4] worked out at 2 ± 0.039.
On to CCUUUA, for which the “FACS-Seq fitted mean (log10)” value in series [1] was 0.459 ± 0.027; in series [3], 0.136 ± 0.057. Further, the “normalized RNA/DNA level without ligand (log10)” value in series [2] was 2.019 ± 0.018. The “normalized RNA/DNA level with ligand (log10)” value in series [4] is 2.06 ± 0.053.
Regarding ACUUUA, the “FACS-Seq fitted mean (log10)” value in series [1] was determined as 0.348 ± 0.12; in series [3], 0.366 ± 0.15. In series [2], the “normalized RNA/DNA level without ligand (log10)” value is 1.978 ± 0.014. In addition, the “normalized RNA/DNA level with ligand (log10)” value in series [4] stood at 2.01 ± 0.028.
As to ACUGGG, the “FACS-Seq fitted mean (log10)” value was -0.0324 ± 0.033 in series [1] and 0.115 ± 0.1 in series [3]. The “normalized RNA/DNA level without ligand (log10)” value in series [2] was 1.841 ± 0.016. Moreover, the “normalized RNA/DNA level with ligand (log10)” value in series [4] was found to be 2.0256 ± 0.0015.
With GCGGAG, the “FACS-Seq fitted mean (log10)” value in series [1] worked out at 0.2 ± 0.093; in series [3], 0.18 ± 0.029. Further, the “normalized RNA/DNA level without ligand (log10)” value in series [2] worked out at 1.89 ± 0.022. Also, the “normalized RNA/DNA level with ligand (log10)” value in series [4] was 2.01 ± 0.051.
Consider ACGUUA, for which the “FACS-Seq fitted mean (log10)” value in series [1] was found to be 0.21 ± 0.027; in series [3] it was 0.285 ± 0.14. The “normalized RNA/DNA level without ligand (log10)” value in series [2] was found to be 1.991 ± 0.011. For the same variant, the “normalized RNA/DNA level with ligand (log10)” value in series [4] is 2.02 ± 0.027.
Regarding ACGUUU, the “FACS-Seq fitted mean (log10)” value in series [1] is -0.149 ± 0.046; in series [3], -0.00103 ± 0.41. Moreover, the “normalized RNA/DNA level without ligand (log10)” value in series [2] came to 2.004 ± 0.015. Also, the “normalized RNA/DNA level with ligand (log10)” value in series [4] was 2.025 ± 0.015.
Consider UCGGCC, for which the “FACS-Seq fitted mean (log10)” value came out at 0.562 ± 0.15 in series [1] and 0.476 ± 0.036 in series [3]. In addition, the “normalized RNA/DNA level without ligand (log10)” value in series [2] worked out at 2.098 ± 0.0059. For the same variant, the “normalized RNA/DNA level with ligand (log10)” value in series [4] stood at 2.043 ± 0.011.
For UCGGCU, the “FACS-Seq fitted mean (log10)” value worked out at 0.288 ± 0.09 in series [1] and 0.415 ± 0.31 in series [3]. Besides, the “normalized RNA/DNA level without ligand (log10)” value in series [2] was 2.08 ± 0.024. In addition, the “normalized RNA/DNA level with ligand (log10)” value in series [4] was 2.06 ± 0.053.
With GCUCAU, the results for the “FACS-Seq fitted mean (log10)” value in series [1] and in series [3] were -0.192 ± 0.045 and -0.09 ± 0.67, respectively. Besides, the “normalized RNA/DNA level without ligand (log10)” value in series [2] amounted to 2.02 ± 0.029. In addition, in series [4], the “normalized RNA/DNA level with ligand (log10)” value turned out to be 2.009 ± 0.013.
For the variant GCUCAC, the results for the “FACS-Seq fitted mean (log10)” value in series [1] and in series [3] were 0.502 ± 0.15 and 0.372 ± 0.23, respectively. Also, the “normalized RNA/DNA level without ligand (log10)” value in series [2] stood at 2.046 ± 0.0078. In addition, in series [4], the “normalized RNA/DNA level with ligand (log10)” value worked out at 2.032 ± 0.01.
With GCUCAA, the figures for the “FACS-Seq fitted mean (log10)” value in series [1] and in series [3] were 0.44 ± 0.027 and 0.374 ± 0.1, respectively. Further, in series [2], the “normalized RNA/DNA level without ligand (log10)” value was found to be 1.978 ± 0.0021. For the same variant, the “normalized RNA/DNA level with ligand (log10)” value in series [4] was determined as 1.985 ± 0.013.
ACGUGA: the “FACS-Seq fitted mean (log10)” value in series [1] worked out at 0.282 ± 0.011; in series [3], 0.173 ± 0.2. In addition, in series [2], the “normalized RNA/DNA level without ligand (log10)” value is 1.958 ± 0.012. Besides, the “normalized RNA/DNA level with ligand (log10)” value in series [4] amounted to 2.025 ± 0.015.
Turning to UCCACG, the “FACS-Seq fitted mean (log10)” value is 0.0965 ± 0.072 in series [1] and 0.23 ± 0.091 in series [3]. Further, in series [2], the “normalized RNA/DNA level without ligand (log10)” value is 1.921 ± 0.0076. In addition, the “normalized RNA/DNA level with ligand (log10)” value in series [4] worked out at 2.01 ± 0.05.
The matching figures for UCCGCG: 0.277 ± 0.014, 0.502 ± 0.16, 1.842 ± 0.0081 and 1.96 ± 0.041.

The record behind these values is the supplement of paper PMC6757056.
